Source: paper PMC9352680, “A comprehensive thermodynamic model for RNA binding by the Saccharomyces cerevisiae Pumilio protein PUF4”

T1: PUF4 RNA-binding domain (Saccharomyces cerevisiae, UniProt P25339 537-888)
T1 sequence: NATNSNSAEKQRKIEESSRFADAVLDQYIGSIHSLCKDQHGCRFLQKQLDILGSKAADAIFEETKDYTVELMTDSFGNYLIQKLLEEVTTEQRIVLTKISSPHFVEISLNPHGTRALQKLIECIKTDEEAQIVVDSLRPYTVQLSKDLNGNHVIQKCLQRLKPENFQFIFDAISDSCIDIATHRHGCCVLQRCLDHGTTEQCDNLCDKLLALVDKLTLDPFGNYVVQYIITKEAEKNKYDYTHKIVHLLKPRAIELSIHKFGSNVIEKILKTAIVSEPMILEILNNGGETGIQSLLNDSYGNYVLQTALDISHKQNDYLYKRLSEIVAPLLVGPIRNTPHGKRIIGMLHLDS


Target: T1, PUF4 RNA-binding domain
Experiment: Mg; RNA-MaP; 20 mM Na-HEPES pH 7.4, 30 mM KOAc, 0.75 mM MgCl2, 0.1% Tween-20, 5% glycerol, 0.1 mg/mL BSA, 2 mM DTT; 25 C; 0.0125-409.6 nM protein
Details: tags: N-His6-TEV cleaved; C-SNAP kept, Cy3B-labelled; label: tethered on chip by stalled RNA polymerase

Binder	Kd
UCUCUUUGUACCGUGUCUCUU (ssRNA) [Ic_S1_P4E.1_K4.1_C4.1_H4.1_A4.1_[T5C]_[A6C]_[T7G]_F4.1_[A9G]_T4.1]	515 nM
UCUCUUUGUACGCAGUCUCUU (ssRNA) [Ic_S1_P4E.1_K4.1_C4.1_H4.1_A4.1_[T5C]_[A6G]_[T7C]_F4.1_[T8A]_[A9G]_T4.1]	1140 nM
UCUCUUUGUACGUGUUCUCUU (ssRNA) [Ic_S1_P4E.1_K4.1_C4.1_H4.1_A4.1_[T5C]_[A6G]_F4.1_[T8G]_[A9T]_T4.1]	110 nM
UCUCUUUGUACCCGGUCUCUU (ssRNA) [Ic_S1_P4E.1_K4.1_C4.1_H4.1_A4.1_[T5C]_[A6C]_[T7C]_F4.1_[T8G]_[A9G]_T4.1]	> 2300 nM
UCUCUUUAUAUACAUCUCUU (ssRNA) [Ib_S1_P3E.1_K3.1_C3.1_H3.1_[G2A]_A3.1_F3.1_[T7C]_T3.1]	> 2300 nM
UCUCUUUGUACGCCAUCUCUU (ssRNA) [Ic_S1_P4E.1_K4.1_C4.1_H4.1_A4.1_[T5C]_[A6G]_[T7C]_F4.1_[T8C]_T4.1]	29.5 nM
UCUCUUUGUACGUUCUCUCUU (ssRNA) [Ic_S1_P4E.1_K4.1_C4.1_H4.1_A4.1_[T5C]_[A6G]_F4.1_[A9C]_T4.1]	29.9 nM
UCUCUUUGUACCAUGUCUCUU (ssRNA) [Ic_S1_P4E.1_K4.1_C4.1_H4.1_A4.1_[T5C]_[A6C]_[T7A]_F4.1_[A9G]_T4.1]	3.4 nM
UCUCUUUGUACCCCCUCUCUU (ssRNA) [Ic_S1_P4E.1_K4.1_C4.1_H4.1_A4.1_[T5C]_[A6C]_[T7C]_F4.1_[T8C]_[A9C]_T4.1]	1090 nM
UCUCUUUGUGUACAUCUCUU (ssRNA) [Ib_S1_P3E.1_K3.1_C3.1_H3.1_[A4G]_A3.1_F3.1_[T7C]_T3.1]	38.9 nM
UCUCUUUGUACGUAGUCUCUU (ssRNA) [Ic_S1_P4E.1_K4.1_C4.1_H4.1_A4.1_[T5C]_[A6G]_F4.1_[T8A]_[A9G]_T4.1]	93.5 nM
UCUCUUUGUACGGUAUCUCUU (ssRNA) [Ic_S1_P4E.1_K4.1_C4.1_H4.1_A4.1_[T5C]_[A6G]_[T7G]_F4.1_T4.1]	13.4 nM
UCUCUUUGUACCCGUUCUCUU (ssRNA) [Ic_S1_P4E.1_K4.1_C4.1_H4.1_A4.1_[T5C]_[A6C]_[T7C]_F4.1_[T8G]_[A9T]_T4.1]	842 nM
UCUCUUUGUACCGCGUCUCUU (ssRNA) [Ic_S1_P4E.1_K4.1_C4.1_H4.1_A4.1_[T5C]_[A6C]_[T7G]_F4.1_[T8C]_[A9G]_T4.1]	1120 nM
UCUCUUUGUACCGCUUCUCUU (ssRNA) [Ic_S1_P4E.1_K4.1_C4.1_H4.1_A4.1_[T5C]_[A6C]_[T7G]_F4.1_[T8C]_[A9T]_T4.1]	741 nM
UCUCUUAGUAUACAUCUCUU (ssRNA) [Ib_S1_P3E.1_K3.1_C3.1_H3.1_[T1A]_A3.1_F3.1_[T7C]_T3.1]	> 2300 nM
UCUCUUUGUACGUUUUCUCUU (ssRNA) [Ic_S1_P4E.1_K4.1_C4.1_H4.1_A4.1_[T5C]_[A6G]_F4.1_[A9T]_T4.1]	37.8 nM

Binder	Kd
UCUCUUUGUACGCAUUCUCUU (ssRNA) [Ic_S1_P4E.1_K4.1_C4.1_H4.1_A4.1_[T5C]_[A6G]_[T7C]_F4.1_[T8A]_[A9T]_T4.1]	425 nM
UCUCUUUGUACGUGCUCUCUU (ssRNA) [Ic_S1_P4E.1_K4.1_C4.1_H4.1_A4.1_[T5C]_[A6G]_F4.1_[T8G]_[A9C]_T4.1]	466 nM
UCUCUUUGUACGUCUUCUCUU (ssRNA) [Ic_S1_P4E.1_K4.1_C4.1_H4.1_A4.1_[T5C]_[A6G]_F4.1_[T8C]_[A9T]_T4.1]	1520 nM
UCUCUUUGUACGAUGUCUCUU (ssRNA) [Ic_S1_P4E.1_K4.1_C4.1_H4.1_A4.1_[T5C]_[A6G]_[T7A]_F4.1_[A9G]_T4.1]	23.8 nM
UCUCUUUGUACGAUAUCUCUU (ssRNA) [Ic_S1_P4E.1_K4.1_C4.1_H4.1_A4.1_[T5C]_[A6G]_[T7A]_F4.1_T4.1]	2.75 nM
UCUCUUUGUACCGUCUCUCUU (ssRNA) [Ic_S1_P4E.1_K4.1_C4.1_H4.1_A4.1_[T5C]_[A6C]_[T7G]_F4.1_[A9C]_T4.1]	1140 nM
UCUCUUUGUACGUUGUCUCUU (ssRNA) [Ic_S1_P4E.1_K4.1_C4.1_H4.1_A4.1_[T5C]_[A6G]_F4.1_[A9G]_T4.1]	40.5 nM
UCUCUUUGUACCCGCUCUCUU (ssRNA) [Ic_S1_P4E.1_K4.1_C4.1_H4.1_A4.1_[T5C]_[A6C]_[T7C]_F4.1_[T8G]_[A9C]_T4.1]	1420 nM
UCUCUUUGUACGCCCUCUCUU (ssRNA) [Ic_S1_P4E.1_K4.1_C4.1_H4.1_A4.1_[T5C]_[A6G]_[T7C]_F4.1_[T8C]_[A9C]_T4.1]	879 nM
UCUCUUUGUACCGAUUCUCUU (ssRNA) [Ic_S1_P4E.1_K4.1_C4.1_H4.1_A4.1_[T5C]_[A6C]_[T7G]_F4.1_[T8A]_[A9T]_T4.1]	519 nM
UCUCUUUGUACCAAGUCUCUU (ssRNA) [Ic_S1_P4E.1_K4.1_C4.1_H4.1_A4.1_[T5C]_[A6C]_[T7A]_F4.1_[T8A]_[A9G]_T4.1]	755 nM
UCUCUUUGUACCCUUUCUCUU (ssRNA) [Ic_S1_P4E.1_K4.1_C4.1_H4.1_A4.1_[T5C]_[A6C]_[T7C]_F4.1_[A9T]_T4.1]	26.8 nM
UCUCUUUGUACCACGUCUCUU (ssRNA) [Ic_S1_P4E.1_K4.1_C4.1_H4.1_A4.1_[T5C]_[A6C]_[T7A]_F4.1_[T8C]_[A9G]_T4.1]	652 nM
UCUCUUUGCAUACAUCUCUU (ssRNA) [Ib_S1_P3E.1_K3.1_C3.1_H3.1_[T3C]_A3.1_F3.1_[T7C]_T3.1]	> 2300 nM
UCUCUUUGUACGUCAUCUCUU (ssRNA) [Ic_S1_P4E.1_K4.1_C4.1_H4.1_A4.1_[T5C]_[A6G]_F4.1_[T8C]_T4.1]	118 nM
UCUCUUUGUACGUACUCUCUU (ssRNA) [Ic_S1_P4E.1_K4.1_C4.1_H4.1_A4.1_[T5C]_[A6G]_F4.1_[T8A]_[A9C]_T4.1]	1560 nM
